Test results reported in patent publication US20060293506A1 (Amgen, published 2006).
Changes are numbered by the printed parent chain.

B1: CURA2 MAb 1.51 (antibody, IgG2, V domains shown)
VH: EVQLVQSGAEVKKPGESLKISCKGSGYSFTSYWIGWVRQMPGKGLEWMGIIYPGDSDAKYSPSFQGQVTISADKSISTAYLQWSSLKASDTAMYYCARHYDYVWRNYRYTGWFDPWGQGTLVTVSS
VL: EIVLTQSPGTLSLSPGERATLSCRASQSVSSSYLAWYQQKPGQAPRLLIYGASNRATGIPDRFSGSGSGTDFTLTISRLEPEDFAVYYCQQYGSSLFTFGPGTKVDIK
B2: CURA2 MAb 1.46 (antibody, IgG2, V domains shown)
VH: QVQLVQSGAEVKKPGASVKVSCKASGYSFTSYDINWVRQATGQGLEWMGWMNPNNGNTGYAQKFQGRVTMTRNTSISTAYMELSSLRSEDTAVYYCARDIVVVVTATDYYYGMDVWGQGTTVTVSS
VL: DIQMTQSPSSLSASVGDRVTITCRASQGIRNDLGWYQQKPGKAPKRLIFAASSLPSGVPSRFSGSGSGTEFTLTISSLQPEDFATYYCLQHSGYPPTFGQGTKVEIK
B3: CURA2 MAb 1.18 (antibody, IgG2, V domains shown)
VH: QVQLVQSGAEVKKPGASVKVSCKASGYTFTSYDINWVRQATGQGLEWMGWMNPNSGNTGYAQKFQGRVTMTRNTSISTAYMELSSLRSEDTAVYYCAREGIAVAGTYYYYYGMDVWGQGTTVTVSS
VL: B2 VL with F49Y, P55Q, Y87F, S92N, G93S, P96F, Q100P, E105D
B4: CURA2 MAb 1.19 (antibody, IgG2, V domains shown)
VH: QVQLVQSGAEVKKPGASVKVSCKASGYTFTSYDINWVRQATGQGLEWMGWMNPNSGNTGYAQKFQGRVTMTRNTSISTAYMELSSLRSEDTAVYYCARDVMITFGGVIVHYGMDVWGQGTTVTVSS
VL: B2 VL with F49Y, P55Q, E70D, S92N, G93S, Y94D, P96C, T97S, V104L, K107R
B5: CURA2 MAb 6.4 (antibody, IgG2, V domains shown)
VH: QVQLVQSGAEVKKPGASVKVSCKASGYTFTSYDINWVRQATGQGLEWMGWINPNSGNTDYAQKFQGRVTMTRDTSISTAYMELSSLRSEDTAIYYCVRGFGYSYNYDYYYGMDVWGQGTTVTVSS
VL: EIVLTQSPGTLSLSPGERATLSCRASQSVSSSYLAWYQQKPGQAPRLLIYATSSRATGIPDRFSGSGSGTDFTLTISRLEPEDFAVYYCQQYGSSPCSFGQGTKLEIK
B6: CURA2 MAb 1.45 (antibody, IgG2, V domains shown)
VH: B5 VH with I51M, D59G, D73N, I93V, V97A, F100S, N105G
VL: DIQMTQSPSSLSASVGDRVTINCRASQGISNDLAWYQQKPGKVPKLLIYAASTLQLGVPSRFSGSGSGTDFTLTISSLQPEDVATYYCQKYNSAPFTFGPGTKVDIK
B7: CURA2 MAb 1.29 (antibody, IgG2, V domains shown)
VH: EVQLVQSGAEVKKPGESLKISCKGSGYSFTSYWIGWVRQMPGKGLEWMGIIYPGDSDTRYSPSFQGQATISADKSISTAYLQWSSLKASDTAMYYCARHVDVGATIGGYYYYYHGMDVWGQGTTVTVSS
VL: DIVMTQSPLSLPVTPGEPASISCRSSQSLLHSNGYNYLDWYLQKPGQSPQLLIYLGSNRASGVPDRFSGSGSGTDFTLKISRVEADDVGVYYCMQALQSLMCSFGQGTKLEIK

These binders were tested against p35 form of the 30664188.0.99 gene product (active fragment of PDGFD) (human, UniProt Q9GZP0 250-370) (assay: cell-based or functional assay).

| Binder | IC50 (ng/mL), BrdU incorporation assay on NIH 3T3 cells |
| --- | --- |
| B1 | 1000 ng/mL |
| B2 | 500 ng/mL |
| B3 | > 1000 ng/mL |
| B4 | 75 ng/mL |
| B5 | 75 ng/mL |
| B6 | 750 ng/mL |
| B7 | 150 ng/mL |
